Experimental data taken from US20100092460A1 (Ablynx, published 2010).

B12: recombinant human CXCL11/I-TAC (ligand, UniProt O14625 22-94, looked up)
chain: FPMFKRGRCLCIGPGVKAVKVADIEKASIMYPSNNCDKIEVIITLKENKGQRCLNPKSKQARLIIKKVERKNF
modifications: biotinylated in the ELISA; 125I label in the radioligand assays

Experiments:
[1] = target: B12; experiment: inhibition of 125I-CXCL11 binding to hCXCR3 (HEK293T cells), 10x diluted periplasm; ELISA grade at the label
[2] = target: B12; experiment: ELISA, Nanobody captured by coated anti-myc antibody, biotinylated CXCL11, streptavidin-HRP
[3] = target: T1, recombinant human CCL2/MCP1 (human, UniProt P13500 24-99, 125I label in the radioligand assays); experiment: inhibition of 125I-CCL2 (59 pM) binding to HA3-CCR2 on HEK293T cells; radioligand preincubated with purified Nanobody
T1 construct: Immunogen and selection antigen was the Mucin stalk Chimera (R&D 979-MC/CF)
T1 sequence (P13500 24-99 limits assumed): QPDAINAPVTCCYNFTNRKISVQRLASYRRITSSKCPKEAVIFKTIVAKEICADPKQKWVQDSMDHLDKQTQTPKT

[4] = target: B12; experiment: inhibition of 125I-CXCL11 binding to hCXCR3 (HEK293T cells), purified Nanobody
[5] = target: T1, recombinant human CCL2/MCP1; experiment: inhibition of 125I-CCL2 binding to hCCR2 (HEK293T cells), purified Nanobody
CCL5 [6] = target: T2, CCL5 (UniProt P13501 24-91, 125I label); experiment: inhibition of 125I-CCL5 (56 pM) binding to CCR1 on HEK293T cells; radioligand preincubated with purified Nanobody
T2 construct: also called RANTES
T2 sequence (looked up): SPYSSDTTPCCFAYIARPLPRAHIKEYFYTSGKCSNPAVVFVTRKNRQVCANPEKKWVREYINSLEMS

[7] = target: B12; experiment: inhibition of 125I-CXCL11 (46 pM) binding to hCXCR3 on HEK293T cells; radioligand preincubated with purified Nanobody
[8] = target: B12; experiment: cell-based or functional assay
hCXCR3 = target: T3, hCXCR3 (human, UniProt P49682 1-368); experiment: competition of unlabeled CXCL11 with 125I-CXCL11 on HEK293T cells with hCXCR3
T3 construct: whole, on cells
T3 sequence (looked up): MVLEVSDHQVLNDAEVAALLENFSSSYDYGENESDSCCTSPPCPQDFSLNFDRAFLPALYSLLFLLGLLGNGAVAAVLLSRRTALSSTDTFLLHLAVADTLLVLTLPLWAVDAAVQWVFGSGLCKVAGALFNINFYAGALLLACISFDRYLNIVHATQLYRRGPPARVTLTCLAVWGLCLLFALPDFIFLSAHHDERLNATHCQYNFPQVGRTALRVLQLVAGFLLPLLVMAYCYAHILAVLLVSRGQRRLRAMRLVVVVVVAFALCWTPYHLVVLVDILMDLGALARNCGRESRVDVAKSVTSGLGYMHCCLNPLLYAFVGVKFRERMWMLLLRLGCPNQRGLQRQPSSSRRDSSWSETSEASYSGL

[9] = target: T4, recombinant human CCL5/RANTES (Mucin stalk Chimera) (human, UniProt P13501 24-91, biotinylated in the ELISA); experiment: ELISA, periplasmic extract on biotinylated mucin-CCL5 on neutravidin, anti-myc detection
T4 construct: also called mucin-CCL5; not shown: mucin stalk of the chimera (R&D 978-RN/CF); origin, limits and order not described
T4 sequence (looked up): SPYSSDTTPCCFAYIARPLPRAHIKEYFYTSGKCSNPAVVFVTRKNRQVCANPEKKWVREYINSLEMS

CCL5 [10] = target: T2, CCL5; experiment: inhibition of 125I-CCL5 binding to hCCR1 (HEK293T cells), purified Nanobody
[11] = target: B12; experiment: inhibition of 125I-CXCL11 binding to hCXCR3 (HEK293T cells), 10x diluted periplasm; ELISA grade at the label; remark: listed apart in the source

B1: Nanobody 11F10 (VHH)
VHH: EVQLVESGGGLVQAGGSLRLSCAASGFTLDDYAIGWFRQAPGKEREGVSCISSSDGSTYYADSVKGRFTISSDNAKNTVYLQMNSLKPEDTAVYYCAAGQGVLRLWVLSSSSYDYWGQGTQVTVSS
notes: llama VHH against CXCL11; not shown: C-terminal c-myc tag and (His)6 tag coded by the vector
[1]
  binding result: binds

B2: Nanobody 38C6 (VHH)
VHH: EVQLVESGGGLVQAGGSLRLSCAASGFTFDDYAIGWFRQAPGKEREGVSCCSSSDGSTYYADSVKGRFTISSDNAKNTVYLQMNSLKPEDTAVYYCAATQGLTIATMWNPVSYDYWGQGTQVTVSS
notes: as for B1
[2]
  binding result: binds

B3: Nanobody 38G6 (VHH)
VHH: EVQLVESGGGLVQAGGSLRLSCEASGFTFDDYAIGWFRQAPGKEREGVSCCSSSDGSTYYADSVKGRFTISSDNAKNTVYLQMNSLKPEDTAVYYCAATQGLLIATMWNPASYDYWGQGTQVTVSS
notes: as for B1
[2]
  binding result: binds

B4: Nanobody 11D9 (VHH)
VHH: EVQLVESGGGLVQAGGSLRLSCAASGFTFDDYPIGWFRQAPGKEREGISCISSSDGSTYYADSVKGRFTISSDNAKNTVYLQMNSLKPEDTAVYYCAAGLGALVRYYSGSYYCDGMDYWGKGTLVTVSS
notes: as for B1
[1]
  binding result: binds

B5: Nanobody 38E6 (VHH)
VHH: EVQLVESGGGLAQPGGSLRLSCAASGFTFSSYAMSWVRQAPGKGLEWVSAINSGGGSTSYADSVKGRFTISRDNAKNTLYLQMNSLKPEDTAVYYCQRGDYEFEPLEYDYWGQGTQVTVSS
notes: as for B1
[2]
  binding result: binds

B6: Nanobody 8E3 (VHH)
VHH: EVQLVESGGGLVQAGGSLRLSCAASGGTFSSYRMGWFRQAPGKEREFVTLISRSGGTTDYTDSVKGRFTISRDNAKNTVSLQMNNLKPADTAVYYCAAAGSMGWNHLRDYDYWGQGTQVTVSS
notes: llama VHH against CCL2; purified; not shown: C-terminal c-myc tag and (His)6 tag coded by the vector
[3]
  pIC50: 9

B7: Nanobody 8E10 (VHH)
VHH: EVQLVESGGGLVQAGDSLRLSCAASGRTFSSYRMGWFRQAPGKEREFVAAISRSGASAYYADSVKGRFTCSRDNAKDTVYLQMNKLKPEDTAVYYCAASSRMGVDDPETYGYWGQGTQVTVSS
notes: as for B6
[3]
  pIC50: 8.7

B8: Nanobody 11G9 (VHH)
VHH: EVQLVESGGGLVQPGGSLRLSCAASGGTLDDYVIGWFRQAPGKEREGVSCISSTDGSTYYADSVKGRFTISRDNAKNTVYLQVNSLKPEDTAVYYCAAGMGVLRQWALSKLSYDYWGQGTQVTVSS
notes: as for B1
[4]
  binding result: binds

B9: Nanobody 8A3 (VHH)
VHH: EVQLVESGGGLVQAGGSLRLSCVASGLTFSTYSMGWFRQAPGKEREFVAAINGGGSSTTYADSVKGRFTISRDNAKNTVYLQMNSLKPEDTAVYSCAVKMYSGSYSSPPGYNYWGQGTQVTVSS
notes: llama VHH against CCL2; not shown: C-terminal c-myc tag and (His)6 tag coded by the vector
[5]
  binding result: binds

B10: Nanobody 10C8 (VHH)
VHH: EVQLVESGGGLVQAGDSLRLSCATSGRTFTMDGMGWFRQAPGKEREFVATISRSGVGTFYADSVKGRFTISRDNAKNMVYLQMNSLKPEDTALYYCAARPDYTLGTSSYDYDSWGQGTQVTVSS
notes: llama VHH against CCL5; purified; also called 10D8; 10E9; not shown: C-terminal c-myc tag and (His)6 tag coded by the vector
CCL5 [6]
  pIC50: 9.3

B11: Nanobody 11B2 (VHH)
VHH: EVQLVESGGGLVQAGGSLRLSCAASGFTFDDYAMCWFRQAPGKEREGVSCISSSDGSTYYADSVKGRFTISSDNAKNTVYLHMNSLKPEDTAVYYCAAAQGVVAGASLVWVPLDEYDYWGQGTQVTVSS
notes: llama VHH against CXCL11; purified; not shown: C-terminal c-myc tag and (His)6 tag coded by the vector
[7]
  pIC50: 9.1
[8]
  inhibition of CXCL11-induced PLC activation (3H-inositol phosphate accumulation, HEK293T cells with CXCR3 and G-alpha-qi5), pIC50: 7.6

## B12
hCXCR3
  binding result: binds

B13: Nanobody 10E8 (VHH)
VHH: EVQLVESGGGLVQAGGSLRLSCAASGRTFSSYYMGWFRQAPGKEREFVARIGWSSGSTYYADSMKGRFTISRDNAKNTVYLQMNSLKPEDTAVYYCAAAPRYTLATVTYDYDYWGQGTQVTVSS
notes: llama VHH against CCL5; purified; not shown: C-terminal c-myc tag and (His)6 tag coded by the vector
[9]
  binding result: binds
CCL5 [10]
  binding result: binds

B14: Nanobody 11B1 (VHH)
VHH: EVQLVESGGGLVQAGGSLRLSCAASGFTFDDYTIGWFRQAPGKEREGVSCISSSDGSTYYADSVKGRFTISSDNVKNTVYLQMNSLKPEDTAVYYCAASLGFLTAQCMGVMSIGLSEYDYWGQGTQVTVSS
notes: as for B11
[7]
  pIC50: 9.6
[8]
  inhibition of CXCL11-induced PLC activation (3H-inositol phosphate accumulation, HEK293T cells with CXCR3 and G-alpha-qi5), pIC50: 7.8

B15: Nanobody 11A7 (VHH)
VHH: EVQLVESGGGLVQAGGSLRLSCAASGFTFDDYAIGWFRQAPGKEREGVSIISSSDGSTYYADSVKGRFTISSDNAKNTVYLQMNSLKPEDTAVYYCAAGQGWVIATMTSFRAHREYDYWGQGTQVTVSS
notes: llama VHH against CXCL11; also called 11E10; 11E11; not shown: C-terminal c-myc tag and (His)6 tag coded by the vector
[11]
  binding result: binds

B16: Nanobody 11E7 (VHH)
VHH: EVQLVESGGGLVQAGGSLRLSCAASGFTFDDYAIGWFRQAPGKEREGVSIISSSDGTTYYADSVKGRFTISTDNAKNTVYLQMNSLKPEDTAVYYCAAGQGWVIATMTSFRAHREYDYWGQGTQVTVSS
notes: as for B1
[1]
  binding result: binds

B17: Nanobody 11B7 (VHH)
VHH: EVQLVESGGGLVQAGGSLRLSCAASGFNFDDYAIGWFRQAPGKEREGVSIISSSDGNTYYADSVKGRFTISSDNAKNTVYLQMNSLKPEDTAVYYCAAGQGWVIATMTSFRAHREYDYWGQGTQVTVSS
notes: as for B11
[7]
  pIC50: 9.6
[8]
  inhibition of CXCL11-induced PLC activation (3H-inositol phosphate accumulation, HEK293T cells with CXCR3 and G-alpha-qi5), pIC50: 7.9

B18: Nanobody 17B11 (VHH)
VHH: EVQLVESGGGLVQAGGSLRLSCAASGFNFDDYAIGWFRQAPGKEREGVSCISSSDGSTYSADSVKGRFTISSDNAKNTVYLQMNNLNPEDTAAYYCAAAPPDCTYYPATPIYYWGQGTQVTVSS
notes: as for B13
CCL5 [6]
  pIC50: 9

B19: Nanobody 10A12 (VHH)
VHH: EVQLVESGGGLVQAGGSLRLSCAASGFTFDDYAIGWFRQVPGKERKGVSCISSSDGTTYYEDSVKGRFTISSDNAKNTIYLQMNSLKPEDTAVYYCAAAPPDCTYYPATPIYYWGQGTQVTVSS
notes: as for B13
[9]
  binding result: binds
CCL5 [10]
  binding result: binds

B20: Nanobody 11G10 (VHH)
VHH: EVQLVESGGGLVQPGGSLRLSCAASGFTLDDYAIGWFRQAPGKEREGVSSISSSDGRTYYADSVKGRFAISRDNAKNTVYLQMNSLKPEDTAVYYCAADQGVVAYDALRPYRWLEVWGQGTLVTVSS
notes: as for B1
[1]
  binding result: binds

B21: Nanobody 8D3 (VHH)
VHH: EVQLVESGGGLVQAGGSLRLSCAASGRTFSNYAMGWFRQAPGKEREFVAAISWSDGSTYYADSVKGRFTISRDNAKNTVYLLMNSLNPEDTAVYYCAADLLAEDPAAPSRGYDYWGQGTQVTVSS
notes: as for B9
[5]
  binding result: binds
